{
  "source": "paper PMC12342251",
  "about": "“HBV capsid assembly modulators differentially modulate the assembly of wild-type and drug-resistant core protein chimeric nucleocapsids and empty capsids” (PLOS Pathogens, 2025)",
  "proteins": {"B1": {"name": "WT-Cp149 dimer (HBV core protein residues 1-149) (domain or fragment)", "chain": "MDIDPYKEFGATVELLSFLPSDFFPSVRDLLDTASALYREALESPEHCSPHHTALRQAILCWGELMTLATWVGVNLEDPASRDLVVSYVNTNMGLKFRQLLWFHISCLTFGRETVIEYLVSFGVWIRTPPAYRPPNAPILSTLPETTVV", "notes": "source: E. coli NiCo21(DE3), purified"}},
  "molecular_target": "the molecule itself",
  "experiment": "SEC",
  "data": [
    {"protein": "B1", "values": [
      {"measurement": "binding result", "result": "binds"}
    ]}
  ]
}
